From patent US12643954B2, “Anti-CD36 antibodies and their use to treat cancer” (ONA Therapeutics, S.L., priority 2020, dated 2026)

Assays:
[1] = tested on: OVCAR-3 cells; test: OVCAR-3 orthotopic mouse model of ovarian cancer (Example 9); format: in vivo
Description: Studies of the effects of the ONA-0-v1 and 1G04 anti-CD36 antibodies on ovarian cancer were performed in NSG mice (immuno-deficient). The studies included only female mice. All mice were inoculated with commercially available OVCAR-3 (ATCC) cancer cells. OVCAR-3 cells were derived from a human progressive adenocarcinoma of the ovary (i.e., from an ovarian cancer). For each mouse, a piece of an OVCAR-3 xenograft was implanted orthotopically. Prior to inoculation, the OVCAR-3 cells were cultured in a humidified incubator at 37° C. with 5% CO2, and were grown in RPMI-1640 supplemented with 5 μg ml^−1 penicillin/streptomycin, 0.01 mg/ml bovine insulin and 20% FBS (GIBCO).
Treatment of the implanted mice began 7 days after implantation with the OVCAR-3 tumor pieces. Inoculated mice were divided into one of three treatment groups: vehicle injection control (n=9), ONA-0-v1 treatment (n=9), or 1G04 treatment (n=9). ONA-0-v1 antibody treatments were administered via intraperitoneal (i.p.) injection daily at a dose of 3 mg/kg. 1G04 antibody treatments were administered via i.p. injection TIW (three-times weekly) at a dose of 10 mg/kg. Control mice received an equal volume of vehicle daily. […] Mice were sacrificed at the end of the treatment period. Upon sacrifice, organs and tissues were collected for performance of necropsy and histopathology analysis.

[2] = molecular target: CD36 (Homo sapiens, UniProt P16671); test: ELISA binding to plate-coated human CD36; parameters: purchased Sino Biological 10752-H08H; settings: recombinant human CD36 coated plates
Chain of CD36 (P16671 30-439 limits assumed): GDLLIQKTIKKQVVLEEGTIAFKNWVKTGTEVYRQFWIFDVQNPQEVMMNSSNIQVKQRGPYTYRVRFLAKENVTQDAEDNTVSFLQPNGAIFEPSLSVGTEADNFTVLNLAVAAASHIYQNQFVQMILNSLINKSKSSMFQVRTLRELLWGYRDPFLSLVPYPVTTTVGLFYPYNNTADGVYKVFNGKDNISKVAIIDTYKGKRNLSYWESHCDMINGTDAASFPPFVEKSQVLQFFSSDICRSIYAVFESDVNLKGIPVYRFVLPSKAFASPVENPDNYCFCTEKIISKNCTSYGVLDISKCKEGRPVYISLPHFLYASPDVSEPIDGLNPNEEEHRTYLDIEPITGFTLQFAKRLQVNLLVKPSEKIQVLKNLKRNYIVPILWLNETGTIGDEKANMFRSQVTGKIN
Description: To perform ELISA assays, 96-well ELISA plates were coated over night with human CD36 (Sino Biological, reference 10752-H08H) or mouse CD36 (Sino Biological, reference 50422-M08H) recombinant proteins at a concentration of 0.25 mg/ml. After two washes with PBS, plates were blocked with 4% skimmed milk in PBS for 1 hour at 37° C. Blocking solution was discarded and plates were washed five times with 200 μl/well PBS-Tween20 (0.5%). Primary antibodies were either omitted (control blocking solution treatment) or mixed in blocking solution at several dilutions ranging from 0.01 nM to 0.5 μM. The primary antibody solutions were added to the wells and incubated over night at 4° C. After 5 washes with 200 ul/well of PBS-Tween20 (0.5%), plates were incubated for 1 hour at room temperature with a goat anti-mouse HRP-conjugated antibody (Abeam, reference ab97235) diluted 1:2000 in blocking solution. Plates were then washed 5 times with 200 μl/well of PBS-Tween20 (0.5%), incubated with 100 μl/well TMB and detected after 10 minutes, 30 minutes, or 60 minutes with a spectrophotometer at a wave length of 630 nm.

[3] = molecular target: T1, cells overexpressing human CD36 (Homo sapiens, UniProt P16671); test: FACS binding to cells overexpressing human CD36
T1 construct: expressed in transfected cells
T1 sequence (P16671 whole entry): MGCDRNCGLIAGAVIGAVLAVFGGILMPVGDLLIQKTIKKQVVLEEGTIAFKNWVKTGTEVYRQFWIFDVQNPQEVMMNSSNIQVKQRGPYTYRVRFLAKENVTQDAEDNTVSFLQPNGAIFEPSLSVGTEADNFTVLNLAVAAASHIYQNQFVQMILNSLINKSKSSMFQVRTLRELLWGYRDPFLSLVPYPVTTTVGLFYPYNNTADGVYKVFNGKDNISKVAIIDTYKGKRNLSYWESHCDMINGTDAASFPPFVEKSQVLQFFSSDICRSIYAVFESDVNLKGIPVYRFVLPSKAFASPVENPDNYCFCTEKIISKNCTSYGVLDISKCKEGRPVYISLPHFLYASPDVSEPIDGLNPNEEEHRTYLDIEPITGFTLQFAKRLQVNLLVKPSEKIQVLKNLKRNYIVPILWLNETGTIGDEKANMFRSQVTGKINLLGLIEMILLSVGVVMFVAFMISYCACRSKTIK
Description: For FACS analysis, cells were trypsinized, collected in a 15 mL tube and diluted in washing buffer (2% FBS in PBS). Cells were then centrifuged at 1500 rpm for 5 min at 4° C., supernatant was discarded, and cells were resuspended in fresh washing buffer. Anti-CD36 antibodies were either omitted (control wash buffer treatment) or serially diluted in washing buffer (dilution range up to 100 nM), and then added to the cells. Incubation was performed on ice for 1 hour. Cells were then centrifuged at 1500 rpm for 5 min at 4° C., supernatant was discarded, and cells were resuspended in fresh washing buffer. Finally, cells were incubated with a […] (BV421 Rat Anti-Mouse IgA, Becton Dickinson, reference 743293) diluted 1:100 in washing buffer, washed and analysed by FACS.

[4] = tested on: FaDu cells; test: FaDu orthotopic mouse model of oral cancer metastasis; format: in vivo
Description: NOD scid gamma (NSG) (NOD.Cg-Prkdc^scidII2rg^tm1Wj1/SzJ) mice were purchased from Charles River and crossed in-house. All mice were housed under a regimen of 12h light/12h dark cycles and SPF conditions, and all procedures were evaluated and approved by the CEEA (Ethical Committee for Animal Experimentation) from the Government of Catalunya. SCC intra-tongue injection was performed as previously described (Oskarsson et al., 2014; Nieman et al., 2011). Briefly, mice were anesthetized by intraperitoneal injection with a mixture of 50 mg per kg of ketamine and 0.5 mg per kg of medetomidin, and SCC cells resuspended in 30 μl PBS were injected into each mouse tongue with a BD ultra-fine 6 mm needle. Mice were monitored for the luciferase bioluminescent signal immediately after injection (TO) and once weekly thereafter with a Xenogen IVIS Imaging System-100 (Caliper Life Sciences). Briefly, animals were injected by retro-orbital injection with 50 μl of D-luciferin (Promega) diluted in 1×PBS at 5 mg ml^−1. Continuous administration of isofluorane gas was provided to ensure anesthetizing animals during imaging. Data was quantified with the Living Image software version 4.4 (Caliper Life Sciences). Quantifications were calculated with unsaturated pixels. Color scale minimum and maximum values are shown in pictures.
Studies on the combination of the effects of the ONA-0-v1 anti-CD36 antibody, both with and without cisplatin, were performed in NSG mice (immuno-deficient). The studies included both male and female mice. All mice were inoculated with commercially available FaDu (ATCC) cancer cells, transduced with a retroviral vector expressing luciferase and the green fluorescent protein (Luc-GFP). FaDu cells were derived from a squamous cell carcinoma (i.e., from an oral cancer). Prior to inoculation, the FaDu cells were cultured in a humidified incubator at 37° C. with 5% CO2, and were grown in EMEM (LONZA) supplemented with 5 μg ml^−1 penicillin/streptomycin and 10% FBS (GIBCO).
For each mouse, 100,000 FaDu cells were inoculated via orthotopic injection.
Treatment of the inoculated mice began nine days after inoculation with the cancer cells. Inoculated mice were divided into four distinct treatment groups.
Antibody treatments were administered via intraperitoneal (i.p.) injection daily at a dose of 1 mg/kg. Cisplatin was administered twice weekly at a dose of 2 mg/kg (Groups 2 and 4). […] During the course of treatment, mice were observed once weekly using an in vivo imaging system (IVIS). Further, mouse body weight was measured twice weekly to update appropriate dosage amounts. At the end of the treatment period, the mice were sacrificed, and organs and tissues were collected for performance of immunohistochemistry analysis.

[5] = antibody alone 1 mg/kg i.p. daily
[6] = antibody in combination with cisplatin

B1: ONA-0-v1: murine IgA anti-CD36 antibody; heavy chain SEQ ID NO: 5, light chain SEQ ID NO: 7 (antibody)
heavy: QVQLKQSGADLVRPGASVKLSCKASGYTFTDYYINWVKQRPGQGLEWIARIYPGSGNTYYNEKFKGKATLTAEKSSSTAYMQLSSLTSEDSAVYFCARGIGGGFGMDYWGQGTSVTVSSESARNPTIYPLTLPPVLCSDPVIIGCLIHDYFPFGTMNVTWGKSGKDITTVNFPPALASGGRYTMSSQLTLPAVECPEGESVKCSVQHDSNPVQELDVNCSPTPPPPITIPSCQPSLSLQRPALEDLLLGSDASITCTLNGLRNPEGAAFTWEPSTGKDAVQKKAAQNSCGCYSVSSVLPGCAERWNSGASFKCTVTHPESGTLTGTIAKVTVNTFPPQVHLLPPPSEELALNELLSLTCLVRAFNPKEVLVRWLHGNEELSPESYLVFEPLKEPGEGATTYLVTSVLRVSAETWKQGDQYSCMVGHEALPMNFTQKTIDRLSGKPTNVSVSVIMSEGDGICY
light: SIVMTQTPKFLLVSAGDRITITCKASQSVSDDVAWYQQKPGQSPKLLIYYASNRYTGVPDRFTGSGYGTDFTFTISTVQAEDLAVYFCQQDYSSPLTFGAGTKLEIKRADAAPTVSIFPPSSEQLTSGGASVVCFLNNFYPKDINVKWKIDGSERQNGVLNSWTDQDSKDSTYSMSSTLTLTKDEYERHNSYTCEATHKTSTSPIVKSFNRNEC
modifications: ONA-0-v1 heavy chain; ONA-0-v1 light chain
decrease in total number of metastases relative to vehicle ([1]; ONA-0-v1 3 mg/kg i.p. daily, 1G04 10 mg/kg i.p. TIW): approximately 45% | mice free of metastasis in the liver ([1]; macroscopic analysis): 78% | mice having 1-2 mm metastasis in the liver ([1]; macroscopic analysis): 17% | mice having 1-2 mm metastasis in the peritoneal wall ([1]; macroscopic analysis): 19% | mice having 2-5 mm metastasis in the liver ([1]; macroscopic analysis): 6% | mice having 2-5 mm metastasis in the peritoneal wall ([1]; macroscopic analysis): 19% | mice having <1 mm metastasis in the liver ([1]; macroscopic analysis): none | mice having >5 mm metastasis in the peritoneal wall ([1]; macroscopic analysis): 19% | mice metastasis-free in the peritoneal wall ([1]; macroscopic analysis): 44% | animals free of metastases in the lung ([1]; microscopic analysis): 44% | mean metastasis number in the lungs per mouse ([1]; microscopic analysis): 1.6 | weight of mice throughout the treatment period ([1]; mouse, in vivo): remained the same | total number of metastases counted ([1]; visual inspection of organs, sum per group): 29 | binding to human CD36 in ELISA [2]: able to specifically bind | binding to cells overexpressing human CD36 (FACS) ([3]; antibodies at 100 nM): bound equivalently | binding to cells overexpressing human CD36 (FACS) ([3]; serial dilution up to 100 nM): specifically bound | tolerability over the course of treatment ([4]; NSG mice): well-tolerated | effect on mouse body weight relative to isotype control ([4]; antibody alone): did not have any effects | effect on platelet count relative to isotype control ([4]; antibody alone): did not have any effects | growth of lymph node metastases (IVIS relative intensity) [4, 5]: able to inhibit growth | inhibition of lymph node metastatic tumor growth relative to IgA isotype control (ratio of IVIS intensity end/start) [4, 5]: greater than 50% | effect on cisplatin-mediated weight loss and decrease in platelet count [4, 6]: did not significantly enhance | growth of lymph node metastases (IVIS relative intensity) [4, 6]: almost complete inhibition | mice in which metastasis into lymph nodes was prevented ([4]; antibody in combination with cisplatin, eight tested mice): five of the eight | mice in which metastasis into lymph nodes was prevented ([4]; single agent, eight tested mice per group): one of the eight | effect on primary tumor (IVIS imaging and H&E staining) ([4]; single agent, antibody 1 mg/kg i.p. daily, cisplatin 2 mg/kg twice weekly): did not have a statistically significant effect
